In experiment [1] the target is T1, Human mature myostatin (myostatin mature form; recombinant mature myostatin) (human (mature form 100% identical in …, UniProt O08689 268-376 (mouse entry), biotinylated in the Biacore assay (immobilized on a streptavidin chip); not labelled in the HEK Blue Assay).
T1 sequence: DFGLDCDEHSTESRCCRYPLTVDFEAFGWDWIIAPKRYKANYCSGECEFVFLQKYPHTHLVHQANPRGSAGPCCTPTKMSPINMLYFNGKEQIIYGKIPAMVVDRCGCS
Put plainly: cell-based or functional assay.

Experiment [2] deals with T1, Human mature myostatin (myostatin …). Nature of the experiment: SPR, Biacore T200, 37 degrees C; biotinylated mature myostatin on streptavidin chip; ratio of dissociation rates. As to the method: (§1) pH dependent binding of MST0226 variants to human mature myostatin were determined at 37 degrees C. using Biacore T200 instrument (GE Healthcare). Biotinylated mature myostatin was immobilized onto streptavidin sensor chip (GE Healthcare). In order to assess pH dependent binding of MST0226 variants to mature myostatin, 100 nM of antibodies were injected over mature myostatin sensor surface at pH 7.4 (20 mM ACES, 150 mM NaCl, 1.2 mM CaCl₂), 0.05% Tween 20, 0.005% NaN₃), followed by dissociation at pH 7.4 and an additional dissociation phase at pH5.8. This is to assess the pH-dependent dissociation of antibody/antigen complexes formed at pH 7.4. The dissociation rate (kd) at both pH 7.4 and pH 5.8 buffer was determined by processing and fitting data using Scrubber 2.0 (BioLogic Software) curve fitting software. The ratio of (kd at pH5.8)/(kd at pH 7.4) gives indication of pH dependent binding, e.g. ratio>1 indicates pH dependent binding. The sensor surface was regenerated each cycle with 10 mM Glycine-HCl, pH 1.7.
On the technique in general: Surface plasmon resonance follows binding to a sensor surface in real time, without labels.

Experiment [3] shares this target. Nature of the experiment: SPR (Biacore T200, 37 degrees C), biotinylated mature myostatin on streptavidin chip, 100 nM antibody, dissociation at pH 7.4 then pH 5.8. As to the method: as §1
For experiment [4] the target is unchanged. Put plainly: SPR, Biacore T200, 37 degrees C; biotinylated mature myostatin on streptavidin chip, 100 nM antibody bound at pH 7.4; dissociation phase at pH 5.8. As to the method: as §1
For experiment [5] the target is unchanged. Nature of the experiment: SPR, Biacore T200, 37 degrees C; biotinylated mature myostatin on streptavidin chip, 100 nM antibody bound at pH 7.4; dissociation phase at pH 7.4. As for the experimental part: as §1
For experiment [6] the target is unchanged. Put plainly: cell-based or functional assay. The source holds these as a separate data set.

Like-named read-outs stand apart in the source and are kept apart here.

B1: MS_MST0095Hf-G1m/MST0095Lf-kOMTC (antibody, human IgG1, kappa, V domains shown)
VH: QSVEESGGRLVTPGTPLTLTCTASGFSLSSYYMSWVRQAPGKGLEWIGIISSRGSTYYASWAKGRFTISKTSTTVDLKITSPTTEDTATYFCARGVVLWGPGTLVTVSS
VL: ALVMTQTPASVSAAVGGTVTINCQASESIYSGLAWYQQKPGQPPKLLIYSASTLASGVPSRFRGSGSGTEYTLTINDLECADAATYYCQAYDSTNWTFGGGTEVVVKR
On to B1, for which, in experiment [1], the “IC50 (read off the curve); HEK Blue Assay (SEAP reporter, OD620)” value (“IC50 (read off the curve)” below) is roughly 4 ng/mL.

B2: MS_M22601H1020-SG1/M22608L0744-SK1 (antibody, human IgG1, kappa, V domains shown)
VH: EVQLVESGGGLVQPGGSLRLSCAVSGFTLSHYVKGWVRQAPGKGLEWIGIINISGSTYYASWAKGRFTISRDNSKNTVYLQMNSLRAEDTAVYFCARGHDNFGYSYHDFNLWGQGTLVTVSS
VL: AVVMTQSPATLSLSPGERVTLSCQASQSIHHELSWYQQKPGQPPKLLIYLASTLASGVPSRFKGSGSGTDFTLTISSLQPEDAATYYCQTYDGISHYGVAFGQGTKVEIKR
notes: pH-dependent variant of MSLO00-SG1; also called MSLO01-SG1; LO01-SG1
Turning to B2, in experiment [2], the “Ratio of (kd pH 5.8)/(kd pH 7.4)” value worked out at 17.4. In addition, the “ratio of (kd at pH5.8)/(kd at pH 7.4)” value in experiment [3] was found to be 17. Moreover, the off-rate constant (koff) in experiment [4] amounted to 0.00228 s⁻¹; in experiment [5], 0.000131 s⁻¹.

B3: MS_M22601H1080-SG1/M22608L0837-SK1 (antibody, human IgG1, kappa, V domains shown)
VH: EVQLVESGGGLVQPGGSLRLSCAVSGFTLSHYVKGWVRQAPGKGLEWIGIINIEGSTYYASWAEGRFTISRDNSKNTVYLQMNSLRAEDTAVYFCARGHDNFGYSYHDFNLWGQGTLVTVSS
VL: AVVMTQSPATLSLSPGERVTLSCQASESIHHELSWYQQKPGQPPKLLIYLASTLASGVPSRFKGSGSGTDFTLTISSLQPEDAATYYCQTYDGISHYGVAFGQGTKVEIKR
notes: pH-dependent variant of MSLO00-SG1; also called MSLO02-SG1; LO02-SG1
As to B3, the “Ratio of (kd pH 5.8)/(kd pH 7.4)” value in experiment [2] stood at 26.2. Besides, the “ratio of (kd at pH5.8)/(kd at pH 7.4)” value in experiment [3] worked out at 17. For the same molecule, the koff was 0.00254 s⁻¹ in experiment [4] and 9.7e-05 s⁻¹ in experiment [5].

B4: MS_M22601H-SG1/M22608L-SK1 (antibody, human IgG1, kappa, V domains shown)
VH: EVQLVESGGGLVQPGGSLRLSCAVSGFTLSNYVMGWVRQAPGKGLEWIGIINISGSTYYASWAKGRFTISRDNSKNTVYLQMNSLRAEDTAVYFCARGGDNFGYSYIDFNLWGQGTLVTVSS
VL: AVVMTQSPATLSLSPGERVTLSCQASQSISNELSWYQQKPGQPPKLLIYLASTLASGVPSRFKGSGSGTDFTLTISSLQPEDAATYYCQTYDGISSYGVAFGQGTKVEIKR
notes: Humanized form of MST0226-G1m; the non pH-dependent antibody; also called MSLO00-SG1; LO00-SG1
In the case of B4, the “Ratio of (kd pH 5.8)/(kd pH 7.4)” value in experiment [2] was found to be 0.8. For the same molecule, the dissociation rate constant (koff) stood at 6.04e-05 s⁻¹ in experiment [4] and 7.82e-05 s⁻¹ in experiment [5].

B5: MS_M22601H1082-SG1/M22608L0837-SK1 (antibody, human IgG1, kappa, V domains shown)
VH: EVQLVESGGGLVQPGGSLRLSCAVSGFTLSHYVKGWVRQAPGKGLEWIGIINIEGETYYASWAKGRFTISRDNSKNTVYLQMNSLRAEDTAVYFCARGHDNFGYSYHDFNLWGQGTLVTVSS
VL: AVVMTQSPATLSLSPGERVTLSCQASESIHHELSWYQQKPGQPPKLLIYLASTLASGVPSRFKGSGSGTDFTLTISSLQPEDAATYYCQTYDGISHYGVAFGQGTKVEIKR
notes: pH-dependent variant of MSLO00-SG1; also called MSLO03-SG1; LO03-SG1
B5: in experiment [2], the “Ratio of (kd pH 5.8)/(kd pH 7.4)” value came to 26.8. The “ratio of (kd at pH5.8)/(kd at pH 7.4)” value in experiment [3] was found to be 17. For the same molecule, the dissociation rate constant (koff) worked out at 0.00321 s⁻¹ in experiment [4] and 0.00012 s⁻¹ in experiment [5].

B6: MS_M22601H1080-SG1/M22608L0846-SK1 (antibody, human IgG1, kappa, V domains shown)
VH: EVQLVESGGGLVQPGGSLRLSCAVSGFTLSHYVKGWVRQAPGKGLEWIGIINIEGSTYYASWAEGRFTISRDNSKNTVYLQMNSLRAEDTAVYFCARGHDNFGYSYHDFNLWGQGTLVTVSS
VL: AVVMTQSPATLSLSPGERVTLSCQASQSIHHDLSWYQQKPGQPPKLLIYLASTLASGVPSRFKGSGSGTDFTLTISSLQPEDAATYYCQTYDGISHYGVAFGQGTKVEIKR
notes: pH-dependent variant of MSLO00-SG1; also called MSLO04-SG1; LO04-SG1
In the case of B6, the “IC50 (read off the curve)” value in experiment [6] was roughly 6 ng/mL. In addition, the “Ratio of (kd pH 5.8)/(kd pH 7.4)” value in experiment [2] is 25.9. In addition, the “ratio of (kd at pH5.8)/(kd at pH 7.4)” value in experiment [3] was determined as 17. The values for the koff in experiment [4] and in experiment [5] were 0.00109 s⁻¹ and 4.19e-05 s⁻¹, respectively.

B7: MS_MST0226Hc-G1m/MST0226La-kOMTC (antibody, human IgG1, kappa, V domains shown)
VH: QSVEESGGRLVTPGGSLTLTCTVSGFSLSNYVMGWVRQAPGKGLEWIGIINISGSTYYASWAKGRFTISRTSTTVDLKMTSLTTEDTATYFCARGGDNFGYSYIDFNLWGPGTLVTVSS
VL: AVVMTQTPASVSEPVGGTVTIKCQASQSISNELSWYRQKPGQPPKLLIYLASTLASGVPSRFKGSGSGTDFTLTISDLECADAATYYCQTYDGISSYGVAFGGGTKVVVER
For B7, the “IC50 (read off the curve)” value in experiment [1] is roughly 7 ng/mL.

Usually koff stands for a measure of how fast the partners let go of each other.

(Values after patent US20190002548A1 (Chugai, published 2019).)
